From patent publication EP4755449A2 (CHUGAI SEIYAKU KABUSHIKI KAISHA, dated 2026)
Where a chain is given by its changes, count along the chain named.

Legend:
[1] = molecular target: T1, human Fc gamma RIIb on MDCK cells (human, UniProt P31994 43-310); assay: cell-based or functional assay
T1 sequence (looked up): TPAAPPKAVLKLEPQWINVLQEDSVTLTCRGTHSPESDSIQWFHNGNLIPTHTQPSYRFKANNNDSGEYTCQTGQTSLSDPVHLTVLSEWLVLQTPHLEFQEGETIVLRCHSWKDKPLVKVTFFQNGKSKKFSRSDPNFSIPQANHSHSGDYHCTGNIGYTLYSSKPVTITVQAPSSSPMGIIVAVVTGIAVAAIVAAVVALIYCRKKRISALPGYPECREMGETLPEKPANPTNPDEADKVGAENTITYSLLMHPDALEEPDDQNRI

[2] = molecular target: T2, human latent myostatin (human, UniProt O14793 25-266; O14793 267-375); assay: SPR 37C pH7.4
T2 construct: non-covalent complex of two propeptides and the mature homodimer; also called human myostatin latent form
T2 sequence 1: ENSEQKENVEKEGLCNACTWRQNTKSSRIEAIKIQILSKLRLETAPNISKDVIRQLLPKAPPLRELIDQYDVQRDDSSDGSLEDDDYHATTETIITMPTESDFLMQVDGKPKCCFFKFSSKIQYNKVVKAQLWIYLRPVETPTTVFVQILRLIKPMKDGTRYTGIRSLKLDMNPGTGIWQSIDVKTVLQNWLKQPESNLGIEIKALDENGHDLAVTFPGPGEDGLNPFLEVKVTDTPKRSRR
T2 sequence 2: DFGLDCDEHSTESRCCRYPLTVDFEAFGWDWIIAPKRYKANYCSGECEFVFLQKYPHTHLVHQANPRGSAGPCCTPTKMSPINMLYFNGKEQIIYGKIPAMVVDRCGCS

[3] = molecular target: T2, human latent myostatin; assay: SPR avidity condition pH7.4 37C; pH 7.4
[4] = molecular target: T3, mouse latent myostatin (mouse, UniProt O08689 26-267; O08689 268-376); assay: SPR avidity condition pH7.4 37C; pH 7.4
T3 sequence 1: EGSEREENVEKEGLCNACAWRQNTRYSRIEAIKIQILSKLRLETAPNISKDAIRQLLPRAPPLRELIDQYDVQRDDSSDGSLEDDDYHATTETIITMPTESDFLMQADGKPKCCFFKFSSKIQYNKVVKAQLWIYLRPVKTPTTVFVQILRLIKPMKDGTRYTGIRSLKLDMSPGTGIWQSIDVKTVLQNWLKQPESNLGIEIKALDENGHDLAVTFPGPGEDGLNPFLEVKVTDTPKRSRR
T3 sequence 2: T2 sequence 2

[5] = molecular target: T4, cynomolgus monkey latent myostatin (cynomolgus monkey, UniProt Q95J86 25-266; Q95J86 267-375, limits assumed); assay: SPR avidity condition pH7.4 37C; pH 7.4
T4 construct: also called cyno latent myostatin
T4 sequence 1: T2 sequence 1 with V52A
T4 sequence 2: T2 sequence 2

[6] = molecular target: T2, human latent myostatin; assay: SPR avidity condition pH5.8 37C; pH 5.8
[7] = molecular target: T3, mouse latent myostatin; assay: SPR avidity condition pH5.8 37C; pH 5.8
[8] = molecular target: T4, cynomolgus monkey latent myostatin; assay: SPR avidity condition pH5.8 37C; pH 5.8
[9] = molecular target: T2, human latent myostatin; assay: SPR affinity condition pH7.4 37C; pH 7.4
[10] = molecular target: T3, mouse latent myostatin; assay: SPR affinity condition pH7.4 37C; pH 7.4
[11] = molecular target: T4, cynomolgus monkey latent myostatin; assay: SPR affinity condition pH7.4 37C; pH 7.4
[12] = molecular target: T2, human latent myostatin; assay: SPR affinity condition pH5.8 37C; pH 5.8
[13] = molecular target: T3, mouse latent myostatin; assay: SPR affinity condition pH5.8 37C; pH 5.8
[14] = molecular target: T4, cynomolgus monkey latent myostatin; assay: SPR affinity condition pH5.8 37C; pH 5.8
[15] = molecular target: T2, human latent myostatin; assay: SPR, dissociation phase at pH5.8
[16] = molecular target: T2, human latent myostatin; assay: SPR affinity condition pH7.4 37C
[17] = molecular target: T3, mouse latent myostatin; assay: SPR affinity condition pH7.4 37C
[18] = molecular target: T4, cynomolgus monkey latent myostatin; assay: SPR affinity condition pH7.4 37C
[19] = molecular target: T5, GST-hMSTN 121-220aa (human, UniProt A1C2U3 121-220 (Pongo pygmaeus entry)); assay: Western blot
T5 construct: not shown: GST tag of pGEX4.1 vector
T5 sequence: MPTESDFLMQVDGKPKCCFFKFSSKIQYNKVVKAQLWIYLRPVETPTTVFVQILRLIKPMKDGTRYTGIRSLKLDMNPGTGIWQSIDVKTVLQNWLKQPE

[20] = molecular target: T6, GST-hMSTN 101-200aa (human, UniProt A1C2U3 101-200 (Pongo pygmaeus entry)); assay: Western blot
T6 construct: not shown: GST tag of pGEX4.1 vector
T6 sequence: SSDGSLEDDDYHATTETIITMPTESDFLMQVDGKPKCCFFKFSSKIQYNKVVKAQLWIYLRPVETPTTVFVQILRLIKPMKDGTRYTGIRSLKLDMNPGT

[21] = molecular target: T7, GST-hMSTN 141-241aa (human, UniProt A1C2U3 141-241 (Pongo pygmaeus entry)); assay: Western blot
T7 construct: not shown: GST tag of pGEX4.1 vector
T7 sequence: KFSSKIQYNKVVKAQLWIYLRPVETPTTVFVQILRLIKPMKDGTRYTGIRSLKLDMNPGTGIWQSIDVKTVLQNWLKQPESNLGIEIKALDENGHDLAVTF

[22] = molecular target: T8, GST-hMSTN 81-180aa (human, UniProt A1C2U3 81-180 (Pongo pygmaeus entry)); assay: Western blot
T8 construct: not shown: GST tag of pGEX4.1 vector
T8 sequence: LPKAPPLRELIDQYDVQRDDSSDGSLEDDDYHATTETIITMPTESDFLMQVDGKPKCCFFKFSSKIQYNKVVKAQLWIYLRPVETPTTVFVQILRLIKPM

[23] = molecular target: T9, GST-hMSTN 61-160aa (human, UniProt O14793 61-160); assay: Western blot
T9 construct: not shown: GST tag of pGEX4.1 vector
T9 sequence: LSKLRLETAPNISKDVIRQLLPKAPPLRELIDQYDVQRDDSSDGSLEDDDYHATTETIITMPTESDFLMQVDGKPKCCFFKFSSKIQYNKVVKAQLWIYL

B1: MS103240H795-TT14/M103202L1045-SK1 (antibody, human IgG1, kappa)
heavy: QVQLVESGGGLVQPGGSLRLSCAVSGIDLSHDDISWVRQAPGKGLEWVSIISYAGSTYYASWAKGRLTISKDTSKNQVVLTMTNMDPVDTATYYCARGVPAYSHGGDLWGQGTLVTVSSASTKGPSVFPLAPSSKSTSGGTAALGCLVKDYFPEPVTVSWNSGALTSGVHTFPAVLQSSGLYSLSSVVTVPSSSLGTQTYICNVNHKPSNTKVDKKVEPKSCDKTHTCPPCPAPEYLGGDSVFLFPPKPKDVLMISRTPEVTCVVIDVSHEDPEVKFNWYVDGVEVHNAKTKPREEQYNSTYRVVSVLPVLHQDWLNGKEYKCKVSNKALPKPIEKTISKAKGQPREPQVYTLPPSREEMTKNQVSLTCLVKGFYPSDIAVEWESNGQPENNYKTTPPVLDSDGSFFLYSKLTVDKSRWQQGNVFSCSVMHEALHNHYTQKSLSLSP
light: DIVMTQSPATLSLSPGERATLSCTTSQSVYHENWLSWFQQKPGQPPKLLIYWASTLAYGVPSRFSGSGSGTDFTLTISSLQPEDAATYYCAGGYGGGRYAFGQGTKVEIKRTVAAPSVFIFPPSDEQLKSGTASVVCLLNNFYPREAKVQWKVDNALQSGNSQESVTEQDSKDSTYSLSSTLTLSKADYEKHKVYACEVTHQGLSSPVTKSFNRGEC
antigen fluorescence intensity inside cells (uptake of antigen-antibody complex) [1]: 7.5 fold of SG1

B2: MS103240H795-TT33/M103202L1045-SK1 (antibody, human IgG1, kappa)
heavy: B1 heavy with Q313R, D415K
light: B1 light
antigen antibody uptake into the cells [1]: 36 fold of SG1

B3: MS_M103205H000-SG1/M103202L000-SK1 (antibody, human IgG1, kappa, V domains shown)
VH: QVTLKESGPVLVKPTETLTLTCTVSGIDLSSYDISWVRQAPGKGLEWVGIISYAGSTYYASWAKGRLTISKDTSKNQVVLTMTNMDPVDTATYYCARGVPAYSTGGDLWGQGTLVTVSS
VL: DIVMTQSPATLSLSPGERATLSCQSSQSVYDNNWLSWFQQKPGQPPKLLIYWASTLASGVPSRFSGSGSGTDFTLTISSLQPEDAATYYCAGGYGGGLYAFGQGTKVEIKR
notes: humanized; also called MS1032LO00-SG1; Ab001
Kd [2]: 0.075 nM
koff [2]: 9.52e-05 s⁻¹
kon [2]: 1.27e+06 M⁻¹ s⁻¹
Kd [3]: 0.075 nM
koff [3]: 9.52e-05 s⁻¹
kon [3]: 1.27e+06 M⁻¹ s⁻¹
Kd [4]: 0.0471 nM
koff [4]: 7.18e-05 s⁻¹
kon [4]: 1.52e+06 M⁻¹ s⁻¹
Kd [5]: 0.0666 nM
koff [5]: 8.08e-05 s⁻¹
kon [5]: 1.21e+06 M⁻¹ s⁻¹
Kd [6]: 0.0797 nM
koff [6]: 0.000128 s⁻¹
kon [6]: 1.6e+06 M⁻¹ s⁻¹
Kd [7]: 0.0087 nM
koff [7]: 2.02e-05 s⁻¹
kon [7]: 2.32e+06 M⁻¹ s⁻¹
Kd [8]: 0.00883 nM
koff [8]: 1.58e-05 s⁻¹
kon [8]: 1.79e+06 M⁻¹ s⁻¹
Kd [9]: 0.23 nM
koff [9]: 0.000245 s⁻¹
kon [9]: 1.07e+06 M⁻¹ s⁻¹
Kd [10]: 0.122 nM
koff [10]: 0.00016 s⁻¹
kon [10]: 1.31e+06 M⁻¹ s⁻¹
Kd [11]: 0.209 nM
koff [11]: 0.000213 s⁻¹
kon [11]: 1.02e+06 M⁻¹ s⁻¹
Kd [12]: 0.215 nM
koff [12]: 0.000235 s⁻¹
kon [12]: 1.09e+06 M⁻¹ s⁻¹
Kd [13]: 0.0438 nM
koff [13]: 7.08e-05 s⁻¹
kon [13]: 1.62e+06 M⁻¹ s⁻¹
Kd [14]: 0.139 nM
koff [14]: 0.000196 s⁻¹
kon [14]: 1.41e+06 M⁻¹ s⁻¹
koff [15]: 2.92e-05 s⁻¹

B4: MS_M103205H714-SG1/M103202L861-SK1 (antibody, human IgG1, kappa, V domains shown)
VH: B3 VH with S31H, Y32T, T104H
VL: B3 VL with Q24T, D31H, S58Y, L98R
notes: also called MS1032LO01-SG1
Kd [4]: 0.149 nM
koff [4]: 0.000217 s⁻¹
kon [4]: 1.45e+06 M⁻¹ s⁻¹
Kd [5]: 0.165 nM
koff [5]: 0.000197 s⁻¹
kon [5]: 1.19e+06 M⁻¹ s⁻¹
Kd [16]: 0.788 nM
koff [16]: 0.00129 s⁻¹
kon [16]: 1.64e+06 M⁻¹ s⁻¹
Kd [17]: 0.713 nM
koff [17]: 0.00107 s⁻¹
kon [17]: 1.5e+06 M⁻¹ s⁻¹
Kd [18]: 0.954 nM
koff [18]: 0.0011 s⁻¹
kon [18]: 1.15e+06 M⁻¹ s⁻¹
Kd [6]: 19.5 nM
koff [6]: 0.0242 s⁻¹
kon [6]: 1.22e+06 M⁻¹ s⁻¹
Kd [7]: 6.15 nM
koff [7]: 0.00625 s⁻¹
kon [7]: 1.02e+06 M⁻¹ s⁻¹
Kd [8]: 8.9 nM
koff [8]: 0.0068 s⁻¹
kon [8]: 764000 M⁻¹ s⁻¹

B5: MST1538 (antibody, human IgG1, kappa, V domains shown)
VH: QSLEESGGGLVKPGGTLTLTCKASGIDFSSYYYMCWVRQAPGKGLEWIACIYAGISGSTYYASWAKGRFTISKTSSTTVTLQMTSLTAADTATYFCARDPYHFDYGSLWGPGTLVTVSS
VL: ALVMTQTPASVSAAVGGTVTINCQASQSVYGGNELSWYQQEPGQPPKLLIYSASKLASGVPSRFKGSGSGTQFTLTISGVQCDDAAAYYCAGYRTYSDDDNAFGGGTKVEIKR
binding result [19]: no binding
binding result [20]: no binding
binding result [21]: no binding
binding result [22]: no binding
binding result [23]: no binding

B6: MST1032 (as used in Example 26) (antibody, V domains shown)
VH: QSLEESGGRLVTPGGSLTVTCRVSGIDLSSYDISWVRQAPGKGLEWIGIISYAGSTYYASWAKGRFTISKTSTTVDLKMTSLTTEDTATYFCARGVPAYSTGGDLWGPGTLVTVSS
VL: AQVLTQTASSVSAAVGGTVTINCQSSQSVYDNNWLSWFQQKPGQPPKLLIYWASTLASGVPSRFKGSGSGTQFTLTISDLECDDAATYYCAGGYGGGLYAFGGGTKVEIK
binding result [19]: no binding
binding result [20]: no binding
binding result [21]: no binding
